Key:
[1] = system: total splenocytes; assay: Ex vivo recall responses of splenocytes, HY bone marrow transplantation model; type: in vivo, mouse
Protocol: On week 8 post bone marrow cell transplantion, total splenocytes (5×10^5 cells/well) were cultured in the presence of medium alone (no stimulation), anti-CD3(1 ug/ml), DBY peptide (10 ug/ml), irradiated male splenocytes (5×10^5 cells/well), or irradiated female splenocytes (5×10^5 cells/well). The individual splenocyte samples were cultured separately in triplicate wells. For T cell proliferative response, the cultures were pulsed with 1 uCi of tritiated thymidine at 24 hours and harvested at 72 hours post culture initiation. The statistical analysis carried out on the data is one-way ANOVA followed by Dunnett's post test as compared to the mice receiving male CD45.1+ bone marrow cells plus Control Ig treatment, p-values *<0.05, **<0.01,***<0.001, and #<0.0001.
On week 8 post bone marrow cell transplant, total splenocytes (5×10^5 cells/well) were cultured in the presence of medium alone (no stimulation), anti-CD3 (1 ug/ml), DBY peptide (10 ug/ml), irradiated male splenocytes (5×10^5 cells/well), or irradiated female splenocytes (5×10^5 cells/well). The individual splenocyte samples were cultured separately in triplicate wells. For the cytokine cultures, the supernatants were collected at 72 hours post culture initiation and the level of secreted cytokine was determined via LiquiChip. […]
These same populations of cells were analyzed at week 8 within the spleen. […]

[2] = system: healthy human skin transplanted onto beige-SCID mice; assay: Humanized psoriasis model, human skin xenografts on beige-SCID mice; type: in vivo, mouse; settings: IHC; vs PBS
From the text: In this model, psoriasis is induced in xenotransplants of healthy human skin transplanted onto beige severe combined immunodeficiency (SCID) mice followed by intradermal (i.d.) injection of IL-2 enriched Peripheral Blood Mononuclear Cells (PBMCs) isolated from blood of psoriasis patients (Nickoloff, 1995; Wrone-Smith, 1996 Gilhar et al., 2002, 2006, 2011). The activity of these compounds was compared to that of Enbrel, a TNF inhibitor which is an approved biological drug for treatment of psoriasis. As a control for model robustness, we used dexamethasone, a steroid with suppressive effects on inflammatory cytokines and chemokines such as TNF-alpha and interferon-gamma which cause severe psoriasis. All treatments were administered intradermally, except for dexamethasone which was given topically.
2.2. Study Protocol A) Healthy human skin pieces with a width of 0.4 mm and surface area of 1.5×1.5 cm were provided from residual skin of routine plastic surgery procedures from the Plastic Surgery Department of the Rambam Medical Center, Israel. In addition, 20 mL blood samples were taken from psoriatic patients. B) Seventy (70) beige-severe combined immunodeficient mice (SCID) (weight ˜20-25 g) were included in this study. Normal healthy human donor skin was transplanted onto the beige-SCID mice as previously described (Nickoloff et al., 1995; Wrone-Smith, 1996; Gilhar et al., 2002, 2006, 2011; Kalish et al., 2009) and the mice were divided into 7 groups. C) Peripheral Blood Mononuclear Cells (PBMCs) isolated from psoriatic patients' blood were cultured in the presence of IL-2 [Prospec, 100 U/mL of RPMI 1640 media, 10% human AB serum (Sigma, St. Louis, Mo.), 1% glutamine, 1% antibiotics (media components; Biological Industries, Kibbutz Beit Haemeck, Israel)] for 14 days, as previously described (Gilhar et al, 2002). D) Four weeks following engraftment, each mouse was injected intra-dermally (i.d.) into the grafted skin lesion, with 1×10^7 activated allogeneic enriched PBMCs from psoriatic patients (FIG. 20). Cells from different psoriasis patients were equally distributed between treatment groups so that each patient is represented in each treatment group. E) On the day of PBMCs injection into the skin grafts, mice were divided randomly into treatment groups (n=9-10 mice per group) and administration of all drugs started (FIG. 20). All tested compounds including the vehicle were given intradermally (intralesional), three times a week, except for dexamethasone which was given topically for 14 consecutive days (Table 3).
F) Twenty eight days after starting the injections and treatment, skin was harvested (FIG. 20). Grafts were analyzed for the following psoriatic parameters by histology: epidermal thickening (acanthosis), suprapapillary epidermal thinning (papillomatosis), hyperkeratosis, parakeratosis, orthokeratosis, agranulosis-hypogranulosis, appearance of neutrophils in the upper spinous layer or in the corneal cell layer—Munro microabscess, regular elongation of rete ridges, angiogenesis, edema and dilated tortuous blood vessels in the dermal papilla and mononuclear cell infiltrate in the papillary dermis. Epidermal thickness was measured as detailed below, and HLA-DR, ICAM-1, Ki-67 and immune infiltrates (anti-CD3 stain) were evaluated by immunohistochemistry (IHC).
The entire skin graft was excised and placed in 10% formal saline overnight. Then, the specimens were place in 70% ethanol and were embedded according to the standard H&E protocol. Histological assessment of the skin grafts was performed by light microscopy and evaluated by two blinded observers [the second observer evaluated random slides (about 25% of all slides) to compare the data obtained by the first observer. […] Epidermal thickness was determined with an ocular micrometer at a minimum of 50 points along the epidermis selected to represent points of maximal and minimal thickness.
Representative grafts were allocated for IHC analysis. […]

B1: C1ORF32 ECD-Fc (SEQ ID NO:42): human-mouse fusion protein: human C1ORF32 ECD fused to mouse immunoglobulin Fc (SEQ ID NO:42) (protein)
chain: LQVTVPDKKKVAMLFQPTVLRCHFSTSSHQPAVVQWKFKSYCQDRMGESLGMSSTRAQSLSKRNLEWDPYLDCLDSRRTVRVVASKQGSTVTLGDFYRGREITIVHDADLQIGKLMWGDSGLYYCIITTPDDLEGKNEDSVELLVLGRTGLLADLLPSFAVEIMGSENLYFQGSGEPRGPTIKPCPPCKCPAPNLLGGPSVFIFPPKIKDVLMISLSPIVTCVVVDVSEDDPDVQISWFVNNVEVHTAQTQTHREDYNSTLRVVSALPIQHQDWMSGKEFKCKVNNKDLPAPIERTISKPKGSVRAPQVYVLPPPEEEMTKKQVTLTCMVTDFMPEDIYVEWTNNGKTELNYKNTEPVLDSDGSYFMYSKLRVEKKNWVERNSYSCSVVHEGLHNHHTTKSFSRTPGK
modifications: Fusion protein human C1ORF32-ECD fused to mouse IgG2a Fc
Question: Which results are given for B1?
Answer: IL-10 and IL-4 ([1]; activation with irradiated male splenocytes): increased level; IL-10 and IL-4 secretion ([1]; week 8 splenocytes, in response to male or female splenocytes): significantly increased; infiltration of T cells (CD3 positive cells) [2]: significant reduction

Source: US20190309044A1, “POLYPEPTIDES AND USES THEREOF AS A DRUG FOR TREATMENT OF AUTOIMMUNE DISORDERS” (Compugen Ltd., priority 2017, published 2019)
